{"source": "patent US10487307B2", "about": "“Culture method for pluripotent stem cells” (FUJIFILM CORPORATION, priority 2013, dated 2019)", "molecules": {"B1": {"name": "RCP-11: recombinant polypeptide for culture, SEQ ID NO: 25; vitronectin positions 1-55, 269-277, 295-341, 342-373, C274S (protein)", "chain": "MDQESCKGRCTEGFNVDKKCQCDELCSYYQSCCTDYTAECKPQVTRGDVFTMPEDESQEESEGSEDIFELLFWGRTSAGTRQPQFISRDWHGVPGQVDAAMAGRIYISGMAPRPSLAKKQRFRHRNRKGYRSQRGHSRGRNQN", "modifications": "Vitronectin-derived Recombinant Protein (RCP-11)", "notes": "vitronectin positions 1-55, 269-277, 295-341, 342-373, C274S"}, "B2": {"name": "RCP-1: recombinant polypeptide for culture, SEQ ID NO: 15; human vitronectin positions 1-55 and 269-459 with N-terminal methionine (protein)", "chain": "MDQESCKGRCTEGFNVDKKCQCDELCSYYQSCCTDYTAECKPQVTRGDVFTMPEDEPSQEECEGSSLSAVFEHFAMMQRDSWEDIFELLFWGRTSAGTRQPQFISRDWHGVPGQVDAAMAGRIYISGMAPRPSLAKKQRFRHRNRKGYRSQRGHSRGRNQNSRRPSRATWLSLFSSEESNLGANNYDDYRMDWLVPATCEPIQSVFFFSGDKYYRVNLRTRRVDTVDPPYPRSIAQYWLGCPAPGHL", "modifications": "Vitronectin-derived Recombinant Protein (RCP-1)"}}, "key": {"[1]": {"test": "Example 5: residual rate of RCP-11 adsorbed after 2-mercaptoethanol pretreatment", "format": "physicochemical", "settings": "24 hours", "description": "In the same manner as in Evaluation 1 about amount of residual polypeptide adsorbed> of Example 3, RCP-11 was added to the respective wells, thereby obtaining a coated cell culture surface. Thereafter, a 2-mercaptoethanol/PBS solution of which the concentration was adjusted in advance as shown in Table 14 was added thereto, followed by incubation for 24 hours, thereby accelerating the desorption of RCP-11.\n(§1) After the cells were cultured for 72 hours, the number of cells was quantified in the same manner as in <Cell growth property evaluation 1> of Example 3. In the table, each of the residual rate of RCP-11 adsorbed and the cell growth rate is expressed as a ratio calculated by regarding the residual rate of the polypeptide adsorbed and the cell growth rate in the case where the pretreatment with PBS is performed as being 100%."}, "iPS cells [2]": {"test_system": "iPS cells", "test": "Example 5: cell growth on pretreated RCP-11 surface", "format": "cell-based, human", "description": "Meanwhile, in the same manner as in <Cell growth property evaluation 1> of Example 3, iPS cells were collected and suspended in Essential 8. The iPS cells were then seeded into the respective wells, to which 2-mercaptoethanol was added so as to accelerate the desorption of RCP-11, at a cell density of 10,000 cells/well, thereby starting culture.\nas §1"}, "[3]": {"test": "Evaluation 2 about amount of residual polypeptide adsorbed (2-mercaptoethanol in PBS)", "format": "physicochemical", "settings": "PBS with 2-mercaptoethanol 8.96 μM to 89.6 mM, 37° C.; FIG. 7", "description": "A cell culture surface coated with RCP-11 was prepared in the same manner as in Example 3, and then PBS containing 2-mercaptoethanol was added thereto such that the final concentration of 2-mercaptoethanol became 89.6 mM (0.7% by mass), 8.96 mM (0.07% by mass), 895.94 μM (0.007% by mass), 89.59 μM (0.0007% by mass), or 8.96 μM (0.00007% by mass), followed by incubation at 37° C. for a predetermined time. Thereafter, in the same manner as in Example 3, the amount of RCP-11 adsorbed was determined, and the residual rate of the polypeptide adsorbed was obtained. In FIG. 7, the amount of residual RCP-11 adsorbed is expressed as a ratio calculated by regarding the amount of RCP-11 adsorbed immediately after the starting of incubation as being 100%. Furthermore, “2-ME” indicates 2-mercaptoethanol."}, "iPS cells [4]": {"test_system": "iPS cells", "test": "Cell growth property evaluation 2 (2-mercaptoethanol concentration in Essential 8)", "format": "cell-based, human", "settings": "RCP-11 100 μg/ml, 72 hours", "description": "A cell culture surface coated with RCP-11 was prepared in the same manner as in <Cell growth property evaluation 1> of Example 1. iPS cells collected in the same manner as in <Cell growth property evaluation 1> were suspended in the respective media composed as shown in Table 12 and seeded into wells at a cell density of 10,000 cells/well. After the cells were cultured for 72 hours, the number of cells were quantified in the same manner as in <Cell growth property evaluation 1>, and the cell growth properties were evaluated based on a cell growth rate which is a ratio calculated by regarding the number of cells cultured using RPC-11 as being 100%."}, "[5]": {"test": "Evaluation of adsorbability with respect to cell culture surface (OPA fluorescence)", "format": "physicochemical", "settings": "FIG. 1; 0 to 200 pmol/cm^2 added, 2 hours at 37° C., washed twice with PBS", "description": "Each of the polypeptides of RCP-1 to RCP-11 and RCP-21 to RCP-26 obtained as above was diluted with a predetermined buffer such that they could be added to wells at a predetermined final concentration of 0 pmol/cm^2 to 200 pmol/cm^2. Thereafter, each of the polypeptides was added in an amount of 64 μL to a plasma-treated 96-well plate made of polystyrene (Tissue Culture-Treated, Falcon). Each of the polypeptides was allowed to adsorb onto the plate by being incubated for 2 hours at 37° C., and then the wells were washed twice with PBS, thereby obtaining surfaces coated with each of the polypeptides of RCP-1 to RCP-11 and RCP-21 to RCP-26.\nAmong the surfaces coated with each of the polypeptides obtained as above, the surfaces coated with RCP-1 and RCP-21 to RCP-26 were applied with 64 μL of a borate buffer and 64 μL of 1 N NaOH, followed by incubation for 24 hours at 80° C. and 100% humidity. After the resultant was air-cooled, 75 μL of a borate buffer was added to each well, and 50 μL of a reaction solution obtained by mixing OPA (o-phthalaldehyde: Wako Pure Chemical Industries, Ltd./methanol solution (160 mg/ml)) with N-acetyl-L-cysteine (NAC: Wako Pure Chemical Industries, Ltd.)/borate buffer solution (2 mg/ml) at a ratio of 1:100 (mass ratio) was further added thereto. After incubation for 30 minutes at 40° C., the fluorescence intensity thereof was measured by using an Envision Multilabel Counter (PerkinElmer Inc.) (excitation 355 nm/fluorescence 486 nm). A calibration curve was separately prepared from each of the polypeptide solutions so as to calculate the amount of the polypeptide adsorbed. In FIG. 1, a black rhombus indicates RCP-1, a black square indicates RCP-21, a black triangle indicates RCP-22, a black circle indicates RCP-23, a white rhombus indicates RCP-24, a white square indicates RCP-25, and a white triangle indicates RCP-26."}, "iPS cells [6]": {"test_system": "iPS cells", "test": "Cell adhesiveness evaluation 3 (RCP-1 added amount)", "format": "cell-based, human", "settings": "for Cell adhesion rate (%): natural vitronectin 130 pmol/cm^2 = 100%, n=3", "description": "The cell adhesiveness was evaluated in the same manner as in <Cell adhesiveness evaluation 1>, except that RCP-1 was used after the concentration thereof was adjusted to 125 pmol/cm^2 to 1,000 pmol/cm^2 by using PBS. In Table 10, the cell adhesion rate is expressed as a ratio calculated by regarding a cell adhesion rate with respect to the cell culture surface, onto which natural vitronectin is adsorbed at a concentration of 130 pmol/cm^2, as being 100%. n=3."}}, "data": [{"molecule": "B1", "values": [{"measurement": "Residual rate of RCP-11 adsorbed (%)", "setting": "[1]; pretreatment 2-Mercaptoethanol 8.96 μM (0.00007% by mass), PBS pretreatment = 100%", "value": 82.2, "unit": "%"}, {"measurement": "Residual rate of RCP-11 adsorbed (%)", "setting": "[1]; pretreatment 2-Mercaptoethanol 895.94 μM (0.007% by mass), PBS pretreatment = 100%", "value": 77.4, "unit": "%"}, {"measurement": "Residual rate of RCP-11 adsorbed (%)", "setting": "[1]; pretreatment 2-Mercaptoethanol 89.6 mM (0.7% by mass), PBS pretreatment = 100%", "value": 56.6, "unit": "%"}, {"measurement": "Residual rate of RCP-11 adsorbed (%)", "setting": "[1]; pretreatment PBS, this = 100%", "value": 100, "unit": "%"}, {"measurement": "Cell growth rate (%)", "setting": "iPS cells [2]; pretreatment 2-Mercaptoethanol 8.96 μM (0.00007% by mass), Essential 8, 72 hours, PBS pretreatment = 100%", "value": 85.2, "unit": "%"}, {"measurement": "Cell growth rate (%)", "setting": "iPS cells [2]; pretreatment 2-Mercaptoethanol 895.94 μM (0.007% by mass), Essential 8, 72 hours, PBS pretreatment = 100%", "value": 70.7, "unit": "%"}, {"measurement": "Cell growth rate (%)", "setting": "iPS cells [2]; pretreatment 2-Mercaptoethanol 89.6 mM (0.7% by mass), Essential 8, 10,000 cells/well, 72 hours, PBS pretreatment = 100%", "value": 38.0, "unit": "%"}, {"measurement": "Cell growth rate (%)", "setting": "iPS cells [2]; pretreatment PBS, Essential 8, 72 hours, this = 100%", "value": 100, "unit": "%"}, {"measurement": "amount of residual RCP-11 versus 2-mercaptoethanol concentration", "setting": "[3]", "value": "tends to decrease as the concentration of 2-mercaptoethanol increases"}, {"measurement": "Cell growth rate", "setting": "iPS cells [4]; Essential8, 2-mercaptoethanol 0, 10,000 cells/well, this = 100%", "value": 100, "unit": "%"}, {"measurement": "Cell growth rate", "setting": "iPS cells [4]; Essential8, 2-mercaptoethanol 10 μM (0.0000078% by mass)", "value": 104.1, "unit": "%"}, {"measurement": "Cell growth rate", "setting": "iPS cells [4]; Essential8, 2-mercaptoethanol 10 μM (0.000078% by mass)", "value": 97.3, "unit": "%"}, {"measurement": "Cell growth rate", "setting": "iPS cells [4]; Essential8, 2-mercaptoethanol 100 μM (0.00078% by mass)", "value": 49.2, "unit": "%"}, {"measurement": "Cell growth rate", "setting": "iPS cells [4]; Essential8, 2-mercaptoethanol 1 mM (0.0078% by mass)", "value": 38.7, "unit": "%"}, {"measurement": "Cell growth rate", "setting": "iPS cells [4]; Essential8, 2-mercaptoethanol 10 mM (0.078% by mass)", "value": 40.2, "unit": "%"}]}, {"molecule": "B2", "values": [{"measurement": "adsorbability with respect to the plate", "setting": "[5]", "value": "excellent adsorbability"}, {"measurement": "Cell adhesion rate (%)", "setting": "iPS cells [6]; added amount 125 pmol/cm^2", "value": "90.3 ± 25.3", "unit": "%"}, {"measurement": "Cell adhesion rate (%)", "setting": "iPS cells [6]; added amount 250 pmol/cm^2", "value": "89.2 ± 10.6", "unit": "%"}, {"measurement": "Cell adhesion rate (%)", "setting": "iPS cells [6]; added amount 500 pmol/cm^2", "value": "108.8 ± 23.0", "unit": "%"}, {"measurement": "Cell adhesion rate (%)", "setting": "iPS cells [6]; added amount 1000 pmol/cm^2", "value": "98.5 ± 17.2", "unit": "%"}, {"measurement": "adhesiveness of iPS cells", "setting": "iPS cells [6]; added amount equal to or greater than 125 pmol/cm^2", "value": "equivalent to the cell adhesion rate of the natural vitronection"}]}]}
